Results: US6569458B1, “Process for producing small particles of biologically active molecules” (Alkermes Controlled Therapeutics, Inc., priority 1989, dated 2003)

Experiments:
[1] = Particle size analysis of fragmented particles (Microtrac small particle analyzer); assay type: physicochemical; conditions: for mean particle diameter / size distribution for the effective diameters: ammonium bicarbonate buffer, ethyl acetate, ultrasonic irradiation; for mean particle diameter after five minutes sonication: atomized into liquid nitrogen, lyophilized, sonicated in ethanol 5 min; for Particle Size: sonicated 5 min
Experimental: A 50 mg sample of the lyophilized microspheres was suspended in 5 ml of 100 percent ethanol solution and cooled in an ice water bath to 0° C. With continuous cooling, the HRP porous particles were then exposed to an ultrasonic probe (Virtis Company Inc., Virsonic 300) for different times. Samples were analyzed for particle size diameter on a Microtrac Model 7995 Small Particle Analyzer (Leeds and Northrup).
The hemoglobin particles were suspended in ethyl acetate and fragmented by subjecting them to ultrasonic irradiation with cooling by an ice bath.

[2] = Diameter of particles by light microscopy; assay type: physicochemical
Experimental: A 250 mg sample of the enzyme horse radish peroxidase (HRP) (Sigma Chemical Co, St. Louis, Mo.) was dissolved in 10 ml of a 0.05 M phosphate buffer solution having a pH of 7.2. The solution was atomized through an ultrasonic nozzle (SonoTek Corp., Model 8700-60MS) into a stirred container of liquid nitrogen. The liquid nitrogen containing the frozen atomized spheres was next placed in a −80° C. freezer until the liquid nitrogen evaporated, about one to two hours. The frozen protein spheres were then placed in a lyophilizer (Virtis Company Inc., Model 10-MR-TR) for at least 12 hours to produce porous particles.
The sample prepared from 100 mg ammonium bicarbonate/ml was suspended in ethyl acetate and fragmented by ultrasonic irradiation.
This was ultrasonicated to form frozen particles which were lyophilized according to the procedure of Example 1.

[3] = Scanning electron micrographs (SEM) of particles; assay type: physicochemical
Experimental: 125 mg bovine hemoglobin dissolved in 5 ml 0.05 M ammonium bicarbonate was formed into particles by spraying and lyophilization, according to the procedure of Example 1. […] A control solution containing only ammonium bicarbonate was also sprayed and lyophilized as described in Example 1.
The hemoglobin particles were suspended in ethyl acetate and fragmented by subjecting them to ultrasonic irradiation with cooling by an ice bath. When the resulting particles were subjected to particle size analysis using a Leeds & Northrup Microtrac small particle analyzer, the mean particle diameter was 3.7±2.8 micrometers.

[4] = Heme absorption, second derivative spectra of processed hemoglobin; assay type: physicochemical, bovine; conditions: homogenized particles stored in ethyl acetate for seven days, dissolved in 0.2 M sodium phosphate pH 7.7
Experimental: The homogenized hemoglobin particles were stored in ethyl acetate for seven days, after which the solvent was decanted and the hemoglobin dried under vacuum at room temperature. The resulting solid was dissolved in 0.2 M sodium phosphate pH 7.7, and its heme absorption compared with that of freshly dissolved bovine hemoglobin, as well as with hemoglobin denatured in 6 M guanidinium chloride, using a Hewlett Packard diode array spectrophotometer. In order to accentuate spectral features, the second derivative of absorption with respect to wavelength was obtained for each sample.

[5] = Particle size analysis of fragmented particles (Microtrac small particle analyzer); assay type: physicochemical; conditions: ethyl acetate
[6] = HRP enzyme activity, rate of oxidation of p-anisidine; assay type: biochemical
Experimental: The activity of the HRP was determined after the lyophilization step and after the ultrasonication step. The method used to determine the enzyme activity is based upon the rate of oxidation of p-anisidine and is described in detail in The Worthington Enzyme Manual, Worthington, D. D., (ed.), Worthington Biochemical Corp., Freehold, N.J., p. 254 (1988).

[7] = SOD enzyme activity, inhibition of the reduction of nitro-blue tetrazolium by the superoxide anion; assay type: biochemical
Experimental: The activity of the SOD was determined after the lyophilization step and after the ultrasonication step. The method used to determine the enzyme activity is based upon the ability of SOD to inhibit the reduction of nitro-blue tetrazolium by the superoxide anion. This assay is described in detail by Winterbourne, et al., in “The Estimation of Red Cell Superoxide Dismutase Activity,” J. Lab. Clin. Med., 85, 337 (1975). After the lyophilization step, the SOD had 94% of its original activity. After the ultrasonication step, the SOD has 91% of its original activity.

NCC(=O)O [Glycine]
mean diameter after ultrasonication ([1]; […] solution in deionized water, ultrasonication for 4 min): 3.2±1.9 micrometers
mean diameter of porous particles ([2]; light microscopy, after lyophilization, before ultrasonication): 24.4±14.6 micrometers

C[C@]12CC[C@H]3[C@@H](CCC4=CC(=O)CC[C@@]43C)[C@@H]1CC[C@@H]2O [testosterone, reference compound]
mean diameter of resulting particles ([1]; […] solution in 1,4 dioxane): 5.4±2.9 micrometers

bovine hemoglobin
mean particle diameter / size distribution for the effective diameters [1]: 3.7±2.8 micrometers
mean particle diameter after five minutes sonication [1]: 1.8±1.3 micrometers
mean particle diameter after 5 minutes sonication ([1]; sprayed into liquid argon before lyophilization): 3.6±2.8 micrometers
length of flat irregular plates (SEM of sonicated particles) [3]: ~1.0 micrometer
thickness of flat irregular plates (SEM of sonicated particles) [3]: 0.1 micrometer
second derivative heme absorption spectrum compared with fresh hemoglobin [4]: identical
size distribution for the effective diameters ([5]; after 80 sec of homogenization): 7.2±3.7 micrometers
particle diameter size distribution ([5]; after 300 sec of homogenization): 6.6±3.7 micrometers

catalase
mean particle diameter after five minutes sonication [1]: 4.5±3.3 micrometers

dextran
mean particle size as a function of solution concentration ([1]; 20, 10, 5, 1, 2.5 and 0.5 percent solutions, ethanol, ultrasonicated five minutes): smallest particles are produced using 0.5 to 5% dextran solutions

heparin [reference compound]
mean particle diameter after five minutes sonication [1]: 6.9±4.0 micrometers

horse radish peroxidase [HRP]
original activity retained after each step of the particle size reduction process ([6]; after the lyophilization step and after the ultrasonication step, phosphate buffer pH 7.2, ethanol): ≥ 90%
activity retained during the process ([6]; ammonium bicarbonate buffer, ethyl acetate, ultrasonic fragmentation (Example 13)): 90%
mean particle size as a function of time of ultrasonication ([1]; after 100 seconds ultrasonication): under five
mean particle diameter / size distribution for the effective diameters [1]: 2.8±2.2 micrometers
Particle Size ([1]; citrate/phosphate buffer pH 5.2): 2.9 ± 2.1 µm
Particle Size ([1]; phosphate buffer pH 7.2): 3.5 ± 2.8 µm
Particle Size ([1]; tris buffer pH 9.1): 6.2 ± 3.7 µm
diameter of the porous spheres after lyophilization ([2]; before sonication, range): 25-35 micrometers

superoxide dismutase [SOD]
original activity after the lyophilization step ([7]; after lyophilization): 94%
original activity after the ultrasonication step ([7]; after ultrasonication): 91%
mean particle diameter after five minutes sonication [1]: 2.7±2.1 micrometers
